Source: patent US20240287175A1

Molecular target: mouse CD22 (mouse) (UniProt P35329)
Assay: cell-based or functional assay

Chain of UniProt P35329 (P35329 22-868): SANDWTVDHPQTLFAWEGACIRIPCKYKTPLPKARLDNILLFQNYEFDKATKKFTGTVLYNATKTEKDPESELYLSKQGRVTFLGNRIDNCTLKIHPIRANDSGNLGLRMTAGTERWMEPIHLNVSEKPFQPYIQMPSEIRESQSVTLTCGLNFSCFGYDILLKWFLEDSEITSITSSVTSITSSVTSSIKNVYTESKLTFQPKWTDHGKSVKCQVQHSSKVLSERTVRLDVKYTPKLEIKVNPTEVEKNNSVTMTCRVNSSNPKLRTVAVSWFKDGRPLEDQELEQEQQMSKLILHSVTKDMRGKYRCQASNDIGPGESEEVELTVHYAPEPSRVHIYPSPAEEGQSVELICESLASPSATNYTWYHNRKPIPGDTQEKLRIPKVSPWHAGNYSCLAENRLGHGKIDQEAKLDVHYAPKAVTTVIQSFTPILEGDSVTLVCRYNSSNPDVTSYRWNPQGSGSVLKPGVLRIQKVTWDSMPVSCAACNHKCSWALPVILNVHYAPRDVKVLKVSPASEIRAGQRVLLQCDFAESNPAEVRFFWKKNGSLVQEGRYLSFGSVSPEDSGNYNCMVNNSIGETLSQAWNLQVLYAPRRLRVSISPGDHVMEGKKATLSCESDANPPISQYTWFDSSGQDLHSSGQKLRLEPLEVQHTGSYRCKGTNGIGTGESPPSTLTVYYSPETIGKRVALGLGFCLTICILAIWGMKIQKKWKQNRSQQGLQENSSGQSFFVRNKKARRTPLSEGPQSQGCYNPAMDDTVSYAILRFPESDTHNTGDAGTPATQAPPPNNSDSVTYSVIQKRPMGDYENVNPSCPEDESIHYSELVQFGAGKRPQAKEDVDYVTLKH

- receptor occupancy necessary to achieve IC50 in the pSHP1/SHP1 assay: < 50%
Substance: mouse monoclonal anti-CD22 antibody (Cy34, BioXCell)
